Reference: paper PMC11066036, “HPK1 citron homology domain regulates phosphorylation of SLP76 and modulates kinase domain interaction dynamics” (Nature Communications, 2024)
One block for each binder: values may come before it.

B1: HPK1 intact citron homology domain fragment (C428-E821), untagged (domain or fragment, UniProt Q92918-2 428-821, looked up)
chain: CASGPPPNSPRPGPPPSTSSPHLTAHSEPSLWNPPSRELDKPPLLPPKKEKMKRKGCALLVKLFNGCPLRIHSTAAWTHPSTKDQHLLLGAEEGIFILNRNDQEATLEMLFPSRTTWVYSINNVLMSLSGKTPHLYSHSILGLLERKETRAGNPIAHISPHRLLARKNMVSTKIQDTKGCRACCVAEGASSGGPFLCGALETSVVLLQWYQPMNKFLLVRQVLFPLPTPLSVFALLTGPGSELPAVCIGVSPGRPGKSVLFHTVRFGALSCWLGEMSTEHRGPVQVTQVEEDMVMVLMDGSVKLVTPEGSPVRGLRTPEIPMTEAVEAVAMVGGQLQAFWKHGVQVWALGSDQLLQELRDPTLTFRLLGSPRPVVVETRPVDDPTAPSNLYIQE
notes: HPK1 (MAP4K1), fragment left after thrombin cut after R427: two PR domains and the intact CHD, residues C428-E821; the protein is printed as M1-E821 (821 residues); Cut out of a full-length construct (T165E, S171E, R319A, thrombin site inserted after V384); none of these changes lies in the fragment; also called WT-CHD; CHD WT; source: sf9, purified; thrombin digest of full-length HPK1 (Ni, …)

Tests used:
[1] = target: full-length HPK1 (M1-E821, T165E, S171E, R319A, Y381E) with N-terminal His tag and C-terminal Flag (UniProt Q92918-2 1-821, T165E | S171E | R319A | Y381E, Isoform 2 (821 aa): C-terminus taken from 8EEC (entity position = residue - 478). N-terminal His and C-terminal Flag left out. A thrombin site after V384 may be present, but its sequence and its prese); experiment: AlphaScreen or HTRF; TR-FRET competition; 5 nM full-length HPK1 with C-terminal Flag labelled with anti-KD Fab-streptavidin-Lumi4Tb and anti-Flag-d2; untagged CHD titrated (23.84-97.65 µM as printed) against the KD-CHD interaction within the full-length protein; One site - Fit Ki; conditions: both partners purified
[2] = target: B1; experiment: SPR; Biacore T200; KD variants captured (56-73 RU) by a biotinylated anti-KD Fab on NeutrAvidin chip; WT-CHD injected as analyte at various concentrations; 20 mM HEPES, 300 mM NaCl, 0.1% polysorbate 20, 0.5 mM TCEP, pH 7.4; 25 °C; conditions: both partners purified
[3] = target: T1, HPK1 intact citron homology domain fragment with C-terminal Flag (Flag-CHD) (UniProt Q92918-2 428-821); experiment: AlphaScreen or HTRF; TR-FRET saturation binding; KD at 5 µM constant, Flag-CHD 1.53 nM-6.25 µM; anti-KD biotinylated Fab with streptavidin-Lumi4Tb and anti-Flag-d2; 20 mM HEPES, 300 mM NaCl, 0.1% polysorbate 20, 0.5 mM TCEP, pH 7.4; apparent KD, called overestimated by the paper; conditions: both partners purified
T1 construct: HPK1 (MAP4K1), intact CHD fragment from thrombin digestion of the full-length protein; the cut is told as after R427 (C428-E821) for the untagged construct; the protein is printed as M1-E821 (821 residues); the Flag form was made by the same digestion; also called intact CHD with C-flag; recombinant Flag-CHD; source: sf9, purified; thrombin digest of full-length HPK1 with C-terminal Flag (Ni, …)
T1 sequence (looked up): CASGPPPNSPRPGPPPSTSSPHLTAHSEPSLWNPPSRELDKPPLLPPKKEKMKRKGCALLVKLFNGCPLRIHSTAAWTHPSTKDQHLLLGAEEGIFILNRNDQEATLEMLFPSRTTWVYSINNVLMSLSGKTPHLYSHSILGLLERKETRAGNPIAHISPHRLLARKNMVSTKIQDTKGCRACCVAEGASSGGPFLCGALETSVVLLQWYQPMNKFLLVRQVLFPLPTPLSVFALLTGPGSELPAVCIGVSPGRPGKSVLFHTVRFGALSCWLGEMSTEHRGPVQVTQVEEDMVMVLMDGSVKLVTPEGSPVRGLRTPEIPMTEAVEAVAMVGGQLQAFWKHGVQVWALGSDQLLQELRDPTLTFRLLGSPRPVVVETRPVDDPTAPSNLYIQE

[4] = target: T2, HPK1 ΔCHD with LgBit tag (UniProt Q92918 1-483); experiment: split reporter (BiFC, NanoBiT); NanoBit in live HPK1-/- Jurkat cells transiently transfected with SmBit-tagged SLP76 and LgBit-tagged HPK1 forms; luminescence over time, with or without TCR stimulation (anti-CD3 and anti-IgG); conditions: partners not purified
T2 construct: HPK1 (MAP4K1) without the CHD, M1-G483; limits as printed for the pMSCV construct of the same name; also called KD + 4PRs; source: HPK1-/- Jurkat cells, transiently transfected, in live cells
T2 sequence (looked up): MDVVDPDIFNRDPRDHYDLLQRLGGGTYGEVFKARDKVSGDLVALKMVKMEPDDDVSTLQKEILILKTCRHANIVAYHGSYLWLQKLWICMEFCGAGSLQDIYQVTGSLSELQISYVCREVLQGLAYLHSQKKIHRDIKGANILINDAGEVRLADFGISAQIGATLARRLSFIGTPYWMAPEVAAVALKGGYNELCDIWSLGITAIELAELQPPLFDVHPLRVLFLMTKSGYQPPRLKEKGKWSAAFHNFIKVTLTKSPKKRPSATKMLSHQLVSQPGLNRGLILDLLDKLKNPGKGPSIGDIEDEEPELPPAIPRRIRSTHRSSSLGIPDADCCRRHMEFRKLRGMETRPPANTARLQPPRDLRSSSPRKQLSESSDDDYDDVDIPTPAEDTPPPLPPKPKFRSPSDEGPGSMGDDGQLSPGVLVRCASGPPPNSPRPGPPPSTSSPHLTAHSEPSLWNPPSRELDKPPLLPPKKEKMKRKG

Binder: B1
Ki [1]: 5990 nM

B4: HPK1 kinase domain T165E/S171E (KD TSEE WT) (domain or fragment, UniProt Q92918 2-293, looked up)
chain: DVVDPDIFNRDPRDHYDLLQRLGGGTYGEVFKARDKVSGDLVALKMVKMEPDDDVSTLQKEILILKTCRHANIVAYHGSYLWLQKLWICMEFCGAGSLQDIYQVTGSLSELQISYVCREVLQGLAYLHSQKKIHRDIKGANILINDAGEVRLADFGISAQIGAELARRLEFIGTPYWMAPEVAAVALKGGYNELCDIWSLGITAIELAELQPPLFDVHPLRVLFLMTKSGYQPPRLKEKGKWSAAFHNFIKVTLTKSPKKRPSATKMLSHQLVSQPGLNRGLILDLLDKLKN
notes: HPK1 (MAP4K1) kinase domain, residues D2-N293, with the phosphomimetic mutations T165E/S171E; also called WT KD; active TSEE form; source: recombinant, purified
Kd [3]: 62.8 nM

B5: SLP76 with SmBit tag (natural protein, UniProt Q13094 1-533, looked up)
chain: MALRNVPFRSEVLGWDPDSLADYFKKLNYKDCEKAVKKYHIDGARFLNLTENDIQKFPKLRVPILSKLSQEINKNEERRSIFTRKPQVPRFPEETESHEEDNGGWSSFEEDDYESPNDDQDGEDDGDYESPNEEEEAPVEDDADYEPPPSNDEEALQNSILPAKPFPNSNSMYIDRPPSGKTPQQPPVPPQRPMAALPPPPAGRNHSPLPPPQTNHEEPSRSRNHKTAKLPAPSIDRSTKPPLDRSLAPFDREPFTLGKKPPFSDKPSIPAGRSLGEHLPKIQKPPLPPTTERHERSSPLPGKKPPVPKHGWGPDRRENDEDDVHQRPLPQPALLPMSSNTFPSRSTKPSPMNPLPSSHMPGAFSESNSSFPQSASLPPYFSQGPSNRPPIRAEGRNFPLPLPNKPRPPSPAEEENSLNEEWYVSYITRPEAEAALRKINQDGTFLVRDSSKKTTTNPYVLMVLYKDKVYNIQIRYQKESQVYLLGTGLRGKEDFLSVSDIIDYFRKMPLLLIDGKNRGSRYQCTLTHAAGYP
notes: SLP76 (SH2 domain-containing leukocyte protein of 76 kD); also called SH2 domain-containing leukocyte protein of 76 kD; source: HPK1-/- Jurkat cells, transiently transfected, in live cells
level of interaction at baseline relative to full-length wild-type [4]: ~0.33 fold of full-length wild-type

More lines, now with the values ahead:

binding result [2]: binds
B2: HPK1 kinase domain S171A (KD SA) (domain or fragment, UniProt Q92918 2-293, looked up)
chain: DVVDPDIFNRDPRDHYDLLQRLGGGTYGEVFKARDKVSGDLVALKMVKMEPDDDVSTLQKEILILKTCRHANIVAYHGSYLWLQKLWICMEFCGAGSLQDIYQVTGSLSELQISYVCREVLQGLAYLHSQKKIHRDIKGANILINDAGEVRLADFGISAQIGATLARRLAFIGTPYWMAPEVAAVALKGGYNELCDIWSLGITAIELAELQPPLFDVHPLRVLFLMTKSGYQPPRLKEKGKWSAAFHNFIKVTLTKSPKKRPSATKMLSHQLVSQPGLNRGLILDLLDKLKN
notes: source: recombinant, purified

Kd [3]: 37.9 nM
B3: HPK1 kinase domain T165E/S171E/L221K (KD TSEE L221K) (domain or fragment, UniProt Q92918 2-293, looked up)
chain: DVVDPDIFNRDPRDHYDLLQRLGGGTYGEVFKARDKVSGDLVALKMVKMEPDDDVSTLQKEILILKTCRHANIVAYHGSYLWLQKLWICMEFCGAGSLQDIYQVTGSLSELQISYVCREVLQGLAYLHSQKKIHRDIKGANILINDAGEVRLADFGISAQIGAELARRLEFIGTPYWMAPEVAAVALKGGYNELCDIWSLGITAIELAELQPPLFDVHPKRVLFLMTKSGYQPPRLKEKGKWSAAFHNFIKVTLTKSPKKRPSATKMLSHQLVSQPGLNRGLILDLLDKLKN
notes: HPK1 (MAP4K1) kinase domain, residues D2-N293, TSEE backbone with L221K; source: recombinant, purified
